In patent publication US20210147536A1 (MAB VENTURE BIOPHARM, published 2021):

Tests used:
[1] = molecular target: T1, human LAG-3 on the cell surface (human, UniProt P18627 23-525); experiment: flow cytometry on activated human CD4+ T cells expressing LAG-3, PE anti-human antibody
T1 construct: whole, on cells; also called cells expressing the human LAG-3
T1 sequence (looked up): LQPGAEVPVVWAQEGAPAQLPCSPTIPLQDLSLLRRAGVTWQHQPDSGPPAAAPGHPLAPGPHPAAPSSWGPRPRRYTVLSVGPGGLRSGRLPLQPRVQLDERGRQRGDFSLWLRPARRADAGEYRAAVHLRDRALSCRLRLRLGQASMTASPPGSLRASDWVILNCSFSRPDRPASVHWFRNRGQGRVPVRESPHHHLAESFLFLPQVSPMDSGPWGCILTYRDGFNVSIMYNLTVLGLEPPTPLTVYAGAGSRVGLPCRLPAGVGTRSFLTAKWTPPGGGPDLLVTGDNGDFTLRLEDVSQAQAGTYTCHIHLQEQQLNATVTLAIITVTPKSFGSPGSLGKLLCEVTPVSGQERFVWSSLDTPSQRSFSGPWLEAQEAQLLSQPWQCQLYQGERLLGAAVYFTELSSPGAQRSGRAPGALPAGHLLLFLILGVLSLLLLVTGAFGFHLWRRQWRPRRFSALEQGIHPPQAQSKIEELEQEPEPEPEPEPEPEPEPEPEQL

[2] = molecular target: T2, human LAG-3-6*His tag recombinant fusion protein (human, UniProt P18627 23-450, biotin-labelled in panning and in Example 9); experiment: ELISA, antibody coated at 1 µg/ml, human LAG-3-6*His titrated, anti-His HRP; range of three experiments
T2 construct: Bought protein; also called hLAG-3-6*his tag recombinant protein; human LAG-3-his tag recombinant fusion protein
T2 sequence: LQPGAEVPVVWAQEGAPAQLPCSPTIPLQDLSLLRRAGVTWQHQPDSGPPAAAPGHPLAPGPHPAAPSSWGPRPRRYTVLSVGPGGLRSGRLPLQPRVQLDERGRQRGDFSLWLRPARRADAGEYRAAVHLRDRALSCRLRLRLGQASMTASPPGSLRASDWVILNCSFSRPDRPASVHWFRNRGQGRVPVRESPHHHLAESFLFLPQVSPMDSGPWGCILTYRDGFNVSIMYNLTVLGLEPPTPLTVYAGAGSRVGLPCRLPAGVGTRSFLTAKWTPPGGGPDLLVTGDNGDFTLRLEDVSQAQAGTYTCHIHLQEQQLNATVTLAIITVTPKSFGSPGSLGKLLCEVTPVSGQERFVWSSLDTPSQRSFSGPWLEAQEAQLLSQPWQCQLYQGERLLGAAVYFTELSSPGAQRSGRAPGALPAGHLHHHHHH

[3] = molecular target: T2, human LAG-3-6*His tag recombinant …; experiment: SPR BIAcore T200, antibody on CM5 chip, human LAG-3-6*His 0.352 to 45 nM as analyte
[4] = molecular target: T2, human LAG-3-6*His tag recombinant …; experiment: BLI (Octet Red96), biotinylated hLAG-3-6*his on SA biosensor, antibody 100 µg/mL in solution, 1:2 binding model
[5] = molecular target: T3, recombinant Macaca fascicularis LAG-3-6*His tag fusion protein (Macaca fascicularis); experiment: ELISA, antibody coated at 1 µg/ml, Macaca fascicularis LAG-3-6*His titrated, anti-His HRP
T3 construct: Bought protein; also called Macaca fascicularis LAG-3 antigen

[6] = molecular target: T2, human LAG-3-6*His tag recombinant …; experiment: BLI (Octet Red96), biotinylated hLAG-3-6*his on SA biosensor, antibody 100 µg/mL in solution, 1:2 binding model; remark: listed apart in the source
[7] = molecular target: T2, human LAG-3-6*His tag recombinant …; experiment: as above; remark: listed apart in the source
[8] = molecular target: T2, human LAG-3-6*His tag recombinant …; experiment: as above; remark: listed apart in the source
[9] = molecular target: T2, human LAG-3-6*His tag recombinant …; experiment: ELISA as in Example 4 (antibody coated, human LAG-3-6*His titrated); N = 5
[10] = molecular target: T1, human LAG-3 on the cell surface; experiment: flow cytometry on cells expressing the human LAG-3, PE anti-human IgG; N = 4

B1: anti-human LAG-3 full human monoclonal antibody MV705-3 (antibody, human IgG4, V domains shown)
VH: EVQLLESGAEVKKPGASVKVSCKASGYTFTSYGISWVRQAPGQGLEWMGWISAYNGNTNYAQKLQGRVTMTTDTSTSTAYMELRSLRSDDTAVYYCARDGWWELLRPDDAFDIWGQGTTVTVSS
VL: QLVLTQSPSVSVSPGQTASITCSGDKLGDKYAYWYQQKPGQAPVLVIYYDSDRPSGIPERFSGSNSGNTATLTISRVEAGDEADYYCQVWDSSSDQVVFGGGTQLTVLG
notes: Full IgG4 with lambda light chain; also called MV705-3(DD + DD)
EC50 [1]: 0.0019 µg/mL
EC50 [2]: 0.04 to 0.1 µg/mL
Kd [3]: 0.00851 nM
koff [3]: 9.18e-07 s⁻¹
kon [3]: 108000 M⁻¹ s⁻¹
Kd [4]: 4.83 nM
koff [4]: 0.000442 s⁻¹
kon [4]: 91600 M⁻¹ s⁻¹
EC50 [5]: 0.11 µg/mL
Kd [6]: 4.83 nM
koff [6]: 0.000442 s⁻¹
kon [6]: 91600 M⁻¹ s⁻¹
Kd [7]: 3.04 nM
koff [7]: 0.000373 s⁻¹
kon [7]: 122000 M⁻¹ s⁻¹
Kd [8]: 3.04 nM
koff [8]: 0.000373 s⁻¹
kon [8]: 122000 M⁻¹ s⁻¹
EC50 [9]: 0.039 µg/mL
EC50 [10]: 0.0023 µg/mL
